Results on one protein are retold here after paper PMC12109740, “Modulation of Kv Channel Gating by Light-Controlled Membrane Thickness” (Biomolecules, 2025).

The data set concerns the molecule itself. The data set can be described thus: SEC; Superdex 200 Increase 10/300 GL, 100 mM KCl, 25 mM Tris pH 8.0, in detergent (DM by the methods, DDM by the results); peak at 11 mL. (In general: Size exclusion chromatography separates by hydrodynamic size, large species first.)

B1: KvAP wild type (voltage-gated potassium channel from Aeropyrum pernix) (natural protein)
chain: GGRVRNIGDVMEHPLVELGVSYAALLSVIVVVVEYTMQLSGEYLVRLYLVDLILVIILWADYAYRAYKSGDPAGYVKKTLYEIPALVPAGLLALIEGHLAGLGLFRLVRLLRFLRILLIISRGSKFLSAIADAADKIRFYHLFGAVMLTVLYGAFAIYIVEYPDPNSSIKSVFDALWWAVVTATTVGYGDVVPATPIGKVIGIAVMLTGISALTLLIGTVSNMFQKILVGEPEPSCSPAKLAEMVSSMSEEEFEEFVRTLKNLRRLENSMK
notes: KvAP, voltage-gated potassium channel of Aeropyrum pernix, wild type; also called Kv channel from Aeropyrum pernix; source: E. coli C43 (DE3), pET21a-derived vector, solubilised in detergent, purified (Ni-NTA, SEC on Superdex 200 Increase)
Broadly, the stoichiometry N is a count of units in the complex or per binding partner. B1: the “stoichiometry N” value came to 4.
